# Laboratory results: patent publication US20160032014A1 (Amgen, published 2016)
# Read-outs that look alike come from different tables or passages of the source.
# Tests used:
# [1] = target: T1, human PCSK9 (self-cleaved, mature, secreted PCSK9 comprising amino acids 31 to 692 of SEQ ID NO: 2) (human, UniProt Q8NBP7 31-692, biotinylated in the ELISAs); test: solution equilibrium, BIAcore, pH 7.4
# T1 construct: Limits 31-692 are stated for the immunogen; the assays only say human PCSK9; also called huPCSK9; rhu PCSK9
# [2] = target: T1, human PCSK9 (self-cleaved, mature, …); test: solution equilibrium, BIAcore
# [3] = target: T1, human PCSK9 (self-cleaved, mature, …); test: solution equilibrium, BIAcore, pH 5.5
# [4] = target: T1, human PCSK9 (self-cleaved, mature, …); test: SPR pH 7.4
# [5] = target: T1, human PCSK9 (self-cleaved, mature, …); test: SPR pH 7.4; remark: listed apart in the source
Kd [1] [nM],KD ratio pH 5.5/pH 7.4 [2],Kd [3] [nM],Kd [4] [nM],koff [4] [s⁻¹],kon [4] [M⁻¹ s⁻¹],Kd [5] [nM],koff [5] [s⁻¹],kon [5] [M⁻¹ s⁻¹],Binder
0.17,8.8,1.5,–,–,–,–,–,–,"SS-14894 (antibody, V domains shown, HC I107M, LC G33, S57L) VH: not shown VL: DIVMTQSPLSLPVTPGEPASISCRSSQSLLHSGNGYNYLDWYLQKPGQSPQLLIYLGLNRASGVPDRFSGSGSGTDFTLKISRVEAEDVGVYYCMQALQTPLTFGGGTKVEIKR"
0.12,12.5,1.5,–,–,–,–,–,–,"SS-15515 (antibody, V domains shown, HC VH6, LC G33, S57M, L97I, Q98H) VH: not shown VL: DIVMTQSPLSLPVTPGEPASISCRSSQSLLHSGNGYNYLDWYLQKPGQSPQLLIYLGMNRASGVPDRFSGSGSGTDFTLKISRVEAEDVGVYYCMQAIHTPLTFGGGTKVEIKR"
–,–,–,0.199,5.98e-05,301000,0.199,5.98e-05,301000,"SS-15499 (antibody, V domains shown, No entry of its own) VH: not shown VL: DIVMTQSPLSLPVTPGEPASISCRSSQSLLHSGNGYNYLDWYLQKPGQSPQLLIYLGLNRASGVPDRFSGSGSGTDFTLKISRVEAEDVGVYYCMQAIHTPLTFGGGTKVEIKR"
0.083,10.4,0.86,–,–,–,–,–,–,"SS-15519 (antibody, V domains shown, HC VH6, LC G33, S57W, L97I, Q98H) VH: not shown VL: DIVMTQSPLSLPVTPGEPASISCRSSQSLLHSGNGYNYLDWYLQKPGQSPQLLIYLGWNRASGVPDRFSGSGSGTDFTLKISRVEAEDVGVYYCMQAIHTPLTFGGGTKVEIKR"
–,–,–,0.123,4.14e-05,335000,0.123,4.14e-05,335000,"SS-15498 (antibody, V domains shown, No entry of its own) VH: not shown VL: DIVMTQSPLSLPVTPGEPASISCRSSQSLLHSGNGYNYLDWYLQKPGQSPQLLIYLGLNRASGVPDRFSGSGSGTDFTLKISRVEAEDVGVYYCMQAIHTPLTFGGGTKVEIKR"
0.17,7.1,1.2,–,–,–,–,–,–,"SS-15520 (antibody, V domains shown, HC VH6, LC G33, S57Q, L97I, Q98H) VH: not shown VL: DIVMTQSPLSLPVTPGEPASISCRSSQSLLHSGNGYNYLDWYLQKPGQSPQLLIYLGQNRASGVPDRFSGSGSGTDFTLKISRVEAEDVGVYYCMQAIHTPLTFGGGTKVEIKR"
0.14,8.6,1.2,–,–,–,–,–,–,"SS-15518 (antibody, V domains shown, HC VH6, LC G33, S57N, L97I, Q98H) VH: not shown VL: DIVMTQSPLSLPVTPGEPASISCRSSQSLLHSGNGYNYLDWYLQKPGQSPQLLIYLGNNRASGVPDRFSGSGSGTDFTLKISRVEAEDVGVYYCMQAIHTPLTFGGGTKVEIKR"
0.12,8.3,1,–,–,–,–,–,–,"SS-15516 (antibody, V domains shown, HC VH6, LC G33, S57F, L97I, Q98H) VH: not shown VL: DIVMTQSPLSLPVTPGEPASISCRSSQSLLHSGNGYNYLDWYLQKPGQSPQLLIYLGFNRASGVPDRFSGSGSGTDFTLKISRVEAEDVGVYYCMQAIHTPLTFGGGTKVEIKR"
–,–,–,0.572,0.000326,570000,0.572,0.000326,570000,"8A3 variant HC I107M / LC N33Y, Y35H, S57L, S61H (antibody, V domains shown) VH: not shown VL: DIVMTQSPLSLPVTPGEPASISCRSSQSLLHSYGHNYLDWYLQKPGQSPQLLIYLGLNRAHGVPDRFSGSGSGTDFTLKISRVEAEDVGVYYCMQALQTPLTFGGGTKVEIKR"
–,–,–,0.232,8.26e-05,356000,0.232,8.26e-05,356000,"SS-15504 (antibody, V domains shown, HC M103S/I107M, LC Y35H, S57L, S61H) VH: not shown VL: DIVMTQSPLSLPVTPGEPASISCRSSQSLLHSNGHNYLDWYLQKPGQSPQLLIYLGLNRAHGVPDRFSGSGSGTDFTLKISRVEAEDVGVYYCMQALQTPLTFGGGTKVEIKR"
–,–,–,0.285,0.000152,534000,0.285,0.000152,534000,"SS-15495 (antibody, V domains shown, HC M103F/I107M, LC N33F, Y35H, S57L, S61H) VH: not shown VL: DIVMTQSPLSLPVTPGEPASISCRSSQSLLHSFGHNYLDWYLQKPGQSPQLLIYLGLNRAHGVPDRFSGSGSGTDFTLKISRVEAEDVGVYYCMQALQTPLTFGGGTKVEIKR"
–,–,–,1.28,0.000758,594000,1.28,0.000758,594000,"8A3 variant HC M103S/I107M / LC N33Y, Y35H, S57L, S61H (antibody, V domains shown) VH: not shown VL: DIVMTQSPLSLPVTPGEPASISCRSSQSLLHSYGHNYLDWYLQKPGQSPQLLIYLGLNRAHGVPDRFSGSGSGTDFTLKISRVEAEDVGVYYCMQALQTPLTFGGGTKVEIKR"
–,–,–,0.459,0.000304,663000,0.459,0.000304,663000,"SS-15500 (antibody, V domains shown) VH: not shown VL: DIVMTQSPLSLPVTPGEPASISCRSSQSLLHSYGHNYLDWYLQKPGQSPQLLIYLGLNRAHGVPDRFSGSGSGTDFTLKISRVEAEDVGVYYCMQALQTPLTFGGGTKVEIKR"
0.29,9.7,2.8,–,–,–,–,–,–,"SS-13991 (antibody, V domains shown, HC WT, LC Tyr38(35)His, Ser68(57)Leu, Ser72(61)His; also called A02) VH: not shown VL: DIVMTQSPLSLPVTPGEPASISCRSSQSLLHSNGHNYLDWYLQKPGQSPQLLIYLGLNRAHGVPDRFSGSGSGTDFTLKISRVEAEDVGVYYCMQALQTPLTFGGGTKVEIKR"
–,–,–,0.292,0.000194,665000,0.292,0.000194,665000,"SS-15496 (antibody, V domains shown, HC I107M, LC N33F, Y35H, S57L, S61H) VH: not shown VL: DIVMTQSPLSLPVTPGEPASISCRSSQSLLHSFGHNYLDWYLQKPGQSPQLLIYLGLNRAHGVPDRFSGSGSGTDFTLKISRVEAEDVGVYYCMQALQTPLTFGGGTKVEIKR"
–,–,–,0.0763,1.98e-05,260000,0.0763,1.98e-05,260000,"SS-15505 (antibody, V domains shown, HC M103F/I107M, LC Y35H, S57L, S61H) VH: not shown VL: DIVMTQSPLSLPVTPGEPASISCRSSQSLLHSNGHNYLDWYLQKPGQSPQLLIYLGLNRAHGVPDRFSGSGSGTDFTLKISRVEAEDVGVYYCMQALQTPLTFGGGTKVEIKR"
–,–,–,2.81,0.00115,410000,2.81,0.00115,410000,"8A3 variant HC WT / LC N33Y, Y35H, S57L, S61H (antibody, V domains shown) VH: not shown VL: DIVMTQSPLSLPVTPGEPASISCRSSQSLLHSYGHNYLDWYLQKPGQSPQLLIYLGLNRAHGVPDRFSGSGSGTDFTLKISRVEAEDVGVYYCMQALQTPLTFGGGTKVEIKR"
0.035,12.9,0.45,0.0611,1.98e-05,325000,0.0611,1.98e-05,325000,"SS-15195 (antibody, V domains shown, HC I107M, LC Y35H, S57L, S61H) VH: not shown VL: DIVMTQSPLSLPVTPGEPASISCRSSQSLLHSNGHNYLDWYLQKPGQSPQLLIYLGLNRAHGVPDRFSGSGSGTDFTLKISRVEAEDVGVYYCMQALQTPLTFGGGTKVEIKR"
–,–,–,0.245,5.89e-05,240000,0.245,5.89e-05,240000,"SS-15506 (antibody, V domains shown, HC M103N/I107M, LC Y35H, S57L, S61H) VH: not shown VL: DIVMTQSPLSLPVTPGEPASISCRSSQSLLHSNGHNYLDWYLQKPGQSPQLLIYLGLNRAHGVPDRFSGSGSGTDFTLKISRVEAEDVGVYYCMQALQTPLTFGGGTKVEIKR"
–,–,–,0.528,0.000253,480000,0.528,0.000253,480000,"8A3 variant HC M103F/I107M / LC N33Y, Y35H, S57L, S61H (antibody, V domains shown) VH: not shown VL: DIVMTQSPLSLPVTPGEPASISCRSSQSLLHSYGHNYLDWYLQKPGQSPQLLIYLGLNRAHGVPDRFSGSGSGTDFTLKISRVEAEDVGVYYCMQALQTPLTFGGGTKVEIKR"
0.23,12.2,2.8,–,–,–,–,–,–,"SS-13993 (antibody, V domains shown, HC WT, LC Tyr38(35)His, Ser68(57)Leu, Ser83(72)His; also called C02) VH: not shown VL: DIVMTQSPLSLPVTPGEPASISCRSSQSLLHSNGHNYLDWYLQKPGQSPQLLIYLGLNRASGVPDRFSGSGHGTDFTLKISRVEAEDVGVYYCMQALQTPLTFGGGTKVEIKR"
–,–,–,0.804,0.000578,719000,0.804,0.000578,719000,"SS-15501 (antibody, V domains shown) VH: not shown VL: DIVMTQSPLSLPVTPGEPASISCRSSQSLLHSFGHNYLDWYLQKPGQSPQLLIYLGLNRAHGVPDRFSGSGSGTDFTLKISRVEAEDVGVYYCMQALQTPLTFGGGTKVEIKR"
–,–,–,0.819,0.000425,519000,0.819,0.000425,519000,"8A3 variant HC M103N/I107M / LC N33Y, Y35H, S57L, S61H (antibody, V domains shown) VH: not shown VL: DIVMTQSPLSLPVTPGEPASISCRSSQSLLHSYGHNYLDWYLQKPGQSPQLLIYLGLNRAHGVPDRFSGSGSGTDFTLKISRVEAEDVGVYYCMQALQTPLTFGGGTKVEIKR"
–,–,–,1.57,0.00092,585000,1.57,0.00092,585000,"SS-15508 (antibody, V domains shown, HC WT, LC N33F, Y35H, S57L, S61H) VH: not shown VL: DIVMTQSPLSLPVTPGEPASISCRSSQSLLHSFGHNYLDWYLQKPGQSPQLLIYLGLNRAHGVPDRFSGSGSGTDFTLKISRVEAEDVGVYYCMQALQTPLTFGGGTKVEIKR"
